According to patent US20250262210A1 (TRUSTEES OF COLUMBIA UNIVERSITY IN THE CITY OF NEW YORK, published 2025):

Tests used:
[1] = target: T1, SBNO2 (human, UniProt Q9Y2G9 1-1366, limits assumed); assay: IP/MS, LZTR1 R810W-FLAG, U87
T1 sequence (looked up): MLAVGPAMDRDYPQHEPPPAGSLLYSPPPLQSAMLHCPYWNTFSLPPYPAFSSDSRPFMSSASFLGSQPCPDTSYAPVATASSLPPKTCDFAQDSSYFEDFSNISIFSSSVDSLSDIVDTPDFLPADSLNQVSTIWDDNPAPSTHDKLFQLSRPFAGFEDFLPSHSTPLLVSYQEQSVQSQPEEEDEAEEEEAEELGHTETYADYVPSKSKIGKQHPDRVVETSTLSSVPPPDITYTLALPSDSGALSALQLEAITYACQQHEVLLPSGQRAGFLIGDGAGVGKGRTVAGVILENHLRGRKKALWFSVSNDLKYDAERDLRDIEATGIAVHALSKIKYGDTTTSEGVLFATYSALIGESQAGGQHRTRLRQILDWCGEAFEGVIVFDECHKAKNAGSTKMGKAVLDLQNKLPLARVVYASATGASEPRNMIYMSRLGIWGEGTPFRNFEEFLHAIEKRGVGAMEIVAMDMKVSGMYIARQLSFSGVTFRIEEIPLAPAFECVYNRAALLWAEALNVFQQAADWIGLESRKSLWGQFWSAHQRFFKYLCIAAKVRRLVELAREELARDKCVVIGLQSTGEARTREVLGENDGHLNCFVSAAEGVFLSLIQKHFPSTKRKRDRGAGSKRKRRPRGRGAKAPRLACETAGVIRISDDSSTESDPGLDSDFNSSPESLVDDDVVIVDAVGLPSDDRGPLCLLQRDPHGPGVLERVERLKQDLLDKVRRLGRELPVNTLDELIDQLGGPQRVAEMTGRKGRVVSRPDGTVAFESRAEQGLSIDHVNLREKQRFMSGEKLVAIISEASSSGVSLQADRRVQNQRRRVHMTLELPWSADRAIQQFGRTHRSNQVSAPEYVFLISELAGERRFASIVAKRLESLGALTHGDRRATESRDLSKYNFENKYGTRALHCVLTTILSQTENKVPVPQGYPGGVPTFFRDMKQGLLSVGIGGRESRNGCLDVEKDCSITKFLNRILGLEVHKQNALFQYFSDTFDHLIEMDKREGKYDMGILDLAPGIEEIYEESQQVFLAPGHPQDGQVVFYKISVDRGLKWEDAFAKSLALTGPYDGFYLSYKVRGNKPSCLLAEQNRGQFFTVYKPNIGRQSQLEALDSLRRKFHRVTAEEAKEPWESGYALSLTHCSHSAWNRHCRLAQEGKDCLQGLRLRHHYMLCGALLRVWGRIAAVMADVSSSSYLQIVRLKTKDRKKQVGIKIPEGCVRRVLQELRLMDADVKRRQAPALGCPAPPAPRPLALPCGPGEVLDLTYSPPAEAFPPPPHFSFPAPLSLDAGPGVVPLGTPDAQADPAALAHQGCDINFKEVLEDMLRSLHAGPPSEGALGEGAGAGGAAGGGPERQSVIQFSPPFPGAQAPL
How it was run: (§1)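 Gel slices were reduced with 5 mM DTT, alkylated with 11 mM IAA and digested overnight at 37° C. with trypsin. Peptides were analysed on an Orbitrap Fusion Tribrid by LC-MS/MS.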

[2] = target: CDC42BPA (human, UniProt Q5VT25 1-1732, limits assumed); assay: IP/MS, LZTR1 R810W-FLAG, U87
How it was run: as §1

Chain of CDC42BPA (Q5VT25 whole entry): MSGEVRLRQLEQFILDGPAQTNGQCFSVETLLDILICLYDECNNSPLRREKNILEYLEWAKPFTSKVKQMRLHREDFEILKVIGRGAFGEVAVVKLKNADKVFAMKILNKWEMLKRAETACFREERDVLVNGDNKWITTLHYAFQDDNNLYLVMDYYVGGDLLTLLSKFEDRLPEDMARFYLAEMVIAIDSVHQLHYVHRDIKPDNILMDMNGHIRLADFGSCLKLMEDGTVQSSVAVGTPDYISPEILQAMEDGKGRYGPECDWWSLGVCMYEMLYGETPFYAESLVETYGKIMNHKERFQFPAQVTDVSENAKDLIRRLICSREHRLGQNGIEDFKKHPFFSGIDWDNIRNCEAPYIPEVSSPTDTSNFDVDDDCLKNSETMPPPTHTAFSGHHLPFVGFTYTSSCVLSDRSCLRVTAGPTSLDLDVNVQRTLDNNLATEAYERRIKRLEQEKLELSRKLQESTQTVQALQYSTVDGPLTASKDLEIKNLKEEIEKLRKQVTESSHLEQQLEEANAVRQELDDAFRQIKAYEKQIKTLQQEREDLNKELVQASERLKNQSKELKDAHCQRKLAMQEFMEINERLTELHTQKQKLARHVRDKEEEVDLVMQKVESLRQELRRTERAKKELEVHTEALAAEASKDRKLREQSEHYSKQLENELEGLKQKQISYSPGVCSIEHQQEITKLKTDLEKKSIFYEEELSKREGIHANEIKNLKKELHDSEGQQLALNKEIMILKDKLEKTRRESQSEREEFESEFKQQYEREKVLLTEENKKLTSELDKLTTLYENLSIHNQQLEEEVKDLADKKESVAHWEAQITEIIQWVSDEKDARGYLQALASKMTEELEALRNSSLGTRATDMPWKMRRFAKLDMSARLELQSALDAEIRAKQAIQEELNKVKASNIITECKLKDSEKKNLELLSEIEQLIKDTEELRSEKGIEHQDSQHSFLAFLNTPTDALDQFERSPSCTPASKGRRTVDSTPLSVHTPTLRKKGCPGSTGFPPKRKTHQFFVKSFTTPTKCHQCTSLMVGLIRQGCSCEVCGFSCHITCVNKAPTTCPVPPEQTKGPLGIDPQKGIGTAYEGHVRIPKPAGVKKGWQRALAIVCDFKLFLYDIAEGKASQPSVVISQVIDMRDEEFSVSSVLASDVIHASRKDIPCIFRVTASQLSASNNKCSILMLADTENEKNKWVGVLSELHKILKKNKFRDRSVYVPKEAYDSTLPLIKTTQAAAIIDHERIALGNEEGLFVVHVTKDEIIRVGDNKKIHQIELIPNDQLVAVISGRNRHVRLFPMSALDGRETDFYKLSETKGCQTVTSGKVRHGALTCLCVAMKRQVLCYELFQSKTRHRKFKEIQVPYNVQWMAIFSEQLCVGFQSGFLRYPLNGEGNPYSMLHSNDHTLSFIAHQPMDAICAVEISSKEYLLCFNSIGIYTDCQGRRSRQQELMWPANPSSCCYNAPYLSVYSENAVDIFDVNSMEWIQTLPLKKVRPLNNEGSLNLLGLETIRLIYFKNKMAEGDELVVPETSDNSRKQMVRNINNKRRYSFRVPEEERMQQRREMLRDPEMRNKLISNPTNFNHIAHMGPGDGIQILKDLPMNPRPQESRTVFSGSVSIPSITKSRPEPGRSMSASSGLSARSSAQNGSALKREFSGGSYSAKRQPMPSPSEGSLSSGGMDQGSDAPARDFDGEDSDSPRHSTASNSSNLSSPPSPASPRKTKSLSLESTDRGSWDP

B1: LZTR1 R810W-FLAG (other, human, UniProt Q8N653 1-840, looked up)
chain: MAGPGSTGGQIGAAALAGGARSKVAPSVDFDHSCSDSVEYLTLNFGPFETVHRWRRLPPCDEFVGARRSKHTVVAYKDAIYVFGGDNGKTMLNDLLRFDVKDCSWCRAFTTGTPPAPRYHHSAVVYGSSMFVFGGYTGDIYSNSNLKNKNDLFEYKFATGQWTEWKIEGRLPVARSAHGATVYSDKLWIFAGYDGNARLNDMWTIGLQDRELTCWEEVAQSGEIPPSCCNFPVAVCRDKMFVFSGQSGAKITNNLFQFEFKDKTWTRIPTEHLLRGSPPPPQRRYGHTMVAFDRHLYVFGGAADNTLPNELHCYDVDFQTWEVVQPSSDSEVGGAEVPERACASEEVPTLTYEERVGFKKSRDVFGLDFGTTSAKQPTQPASELPSGRLFHAAAVISDAMYIFGGTVDNNIRSGEMYRFQFSCYPKCTLHEDYGRLWESRQFCDVEFVLGEKEECVQGHVAIVTARSRWLRRKITQARERLAQKLEQEAAPVPREAPGVAAGGARPPLLHVAIREAEARPFEVLMQFLYTDKIKYPRKGHVEDVLLIMDVYKLALSFQLCRLEQLCRQYIEASVDLQNVLVVCESAARLQLSQLKEHCLNFVVKESHFNQVIMMKEFERLSSPLIVEIVRRKQQPPPRTPLDQPVDIGTSLIQDMKAYLEGAGAEFCDITLLLDGHPRPAHKAILAARSSYFEAMFRSFMPEDGQVNISIGEMVPSRQAFESMLRYIYYGEVNMPPEDSLYLFAAPYYYGFYNNRLQAYCKQNLEMNVTVQNVLQILEAADKTQALDMKRHCLHIIVHQFTKVSKLPTLWSLSQQLLLDIIDSLASHISDKQCAELGADI
notes: Stably expressed in U87 cells by lentivirus; also called LZTR1-FLAG-R810W; LZTR1 RW; not shown: FLAG tag
B1: binds [1]; binds [2].
